Results from the nanobody polyreactivity screen of Harvey et al. (2022).

assay: yeast display, Sf9 membrane polyspecificity reagent, FACS + sequencing; frameworks hold sequencing errors
How it was run: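 Sorting gates, low and high (top ~1%), were placed on anti-HA fluorescence to track expression and on streptavidin fluorescence to track reagent binding. A clone's polyreactivity label is taken from the gate it came out of. The reagent was 10% biotinylated, detergent-solubilized Sf9 membrane, applied for 1 hour at 4 °C to galactose-induced yeast display cells.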

Sequence | polyreactivity (PSR sort gate)
QVQLVESGGGLVQAGGSLRLSCAASGSIIAYNAMGWYRQAPGKERELVAAISYSGDGTYYADSVKGRFTISRDNANNTVYLQMNSLKPEDTAVYFCDTQIYPLVFYQGDWNDYWGQGTQVTVSS | low polyreactivity
QVQLVESGGGLVQAGGSLRLSCAASGSIIDVYAMGWYRQAPGKERELVAAISTSGGSTFYADSVKGRFTISRDHAKNTVYLQMNSLKPEDTAVYYCNAAKYPDQWYDEYNYWGQGTQVTVSS | low polyreactivity
QVQLVESGGGLVQAGGSLRLSCAASGSIIFRYNMGWSRQAPGKERELVAAITTGGSTNYADSVKGRFTISRDNAKNTVSLQMNSLKPEDTAVYYCNRDNRRWTRAAVRVDFYYWGQGTQVTVSS | high polyreactivity
QVQLVESGGGLVQAGGSLRLSCAASGSIIGFNGMGWYRQAPGKERELVSAISSTGGSTYYADSVKGRFTISRDNAKNTVYLQMNSLKPEDTAVYICNTDYSKTIGDGYAGFDYWGQGTQGTVSS | low polyreactivity
QVQLVESGGGLVQAGGSLRLSCAASGSIIGRNVMGWYRQAPGKERELVAVITGSGGGTYYADSVKGRFTISRDNAKNTVYLQMNSLKPEDTAVYYCAARKRGTFTYDYWGQGTQVTVSS | high polyreactivity
QVQLVESGGGLVQAGGSLRLSCAASGSIIGRYTMGWYRQAPGKERELVAAISRSGGSTYYADSVKGRFTISRDNSHNTVYLQMNSPKPEDTAVYYCAKRTYTPRVERLYSSYDYWGQGTQVTVSS | high polyreactivity
QVQLVESGGGLVQAGGSLRLSCAASGSIIGSYVMGWYRQAPGKERELVATITNGGSTYYADSVKGRFTISRDNAKNTVYLQMNSLKPEDTAVYYCAADGRGDLYVWPGIGGDYWGQGTQVTVSS | low polyreactivity
QVQLVESGGGLVQAGGSLRLSCAASGSIIGVNAMGWYRQAPGKERELVAAISSTGGSTYYADSVKGRFTISRDNAKNTVYLQMNSLKPEDTAVYYCAAVLIDPDSNLETGGIFDYWGQGTQVTVSS | low polyreactivity
QVQLVESGGGLVQAGGSLRLSCAASGSIIHNYDMGWYRPAPGTETEFVAAINWSGGNTHYADSVKGRFTISRDNAKNTFYLQMNSLKPEDTAVYYCAADSGFDTAPYDYWGQGTQVTVSS | low polyreactivity
QVQLVESGGGLVQAGGSLRLSCAASGSIIHVNAMGCYRQAPGKERELVAGISDGGSTYYADSVKGRFTISRDNAKYTVYLQMNSLKPEDTAVYYCAAESEQWYSYVLSYDWEYDYWGQGTQVTVSS | low polyreactivity
QVQLVESGGGLVQAGGSLRLSCAASGSIIIGNAMGWYRPAPGKERELVAVINGSDGTTYYADSVKGRFTISRDTAKNTVYLQMNSLKPEDTAVYYCNADFIDPSVYDYNYWGQGTQVTVSS | low polyreactivity
QVQLVESGGGLVQAGGSLRLSCAASGSIIKPYDMGWYIQAPGKERELVAAIRSSGGRTNYADSVKGRFTISRDNAKNTVYLQMNSLKPEDTAVYYCAAGYVSYWYYRYDYWGQGTQVTVSS | high polyreactivity
QVQLVESGGGLVQAGGSLRLSCAASGSIILYYAIGWYRQAPGIERELVAGIRRGGRTNYADSVKGRFTISRDNAKNTVYLQMNSLKPEDTAVYYCAKGGYWGQGSQVTVSS | high polyreactivity
QVQLVESGGGLVQAGGSLRLSCAASGSIIPGYTMGWYRQAPGKERELVAAITSSGGSTYYADSVKGRFTISRDNAKNTVYLQMNSLKPEDTAVYYCNAPFWGYRTSFSYPVVQRFDYWGQGTQVPVSS | low polyreactivity
QVQLVESGGGLVQAGGSLRLSCAASGSIIPRNAMGWYRQAPGKEMELVAAIRKSGGSTYYADSVKGRFTFCRDIAKNTVYLQMNSLKPEDTAVYYCAKPYYVPSWLSPIYNYWGQGTQVTESS | low polyreactivity
QVQLVESGGGLVQAGGSLRLSCAASGSIISDYALGWYRPAPGKERELVAGISSGGGTTYADSVKGRFTISRDNAKNTVYLQMNSLKPEDTAVYYCNKQDQPVGRSGYPYGYDYWGQGTQVTVSS | low polyreactivity

Sequence | polyreactivity (PSR sort gate)
QVQLVESGGGLVQAGGSLRLSCAASGSIISNYVKGWYRQAPGKERELVAAITRRGGRTYYADSVKGRFTISRDNAKNTVYLQMNSLKPEDTAVYYCAAQTISYSYPIIRYDYWGQGTQVTVSS | low polyreactivity
QVQLVESGGGLVQAGGSLRLSCAASGSIISRNAMGWYRQAPGKEREFVAAITRSGGSTSYADSVKGRFTISRDNAKNTVYLQMNSLKPEDTAVYYCSASFARSATAYLFDYWGQGTQVTVSS | high polyreactivity
QVQLVESGGGLVQAGGSLRLSCAASGSIISYYAMGWYRQAPGKERELVATITSGGITYYADSVKGRFTISRDNAKNTVYLQMNSLKPEDTAVYYCNARYPHGYSSYYRFGYWGQGTQVTVSS | high polyreactivity
QVQLVESGGGLVQAGGSLRLSCAASGSIITYYAMGWYRQAPGKERELVAAISSGGSTYYADSVKGRFTISRDNAKSTVYLQMNRLKPEDSAVYYCNADLLDYWSFILFDYWGQGSQVTVSS | high polyreactivity
QVQLVESGGGLVQAGGSLRLSCAASGSIIVGYAMGWYRQAPGKEREMVALISSDCDTYYADSVKGRFTISRDNAKNTVYLQMNSLKAEDTAVYYCNADLYGGGDKSVISGLNGEYEYWGQGTQVTVSS | low polyreactivity
QVQLVESGGGLVQAGGSLRLSCAASGSIIYKYAMGWYRQAPGKERELVAAINSGGRTYYADSVKGRFTISRDNAKNTVYLQMNSLKPEDTAVYYCNAGTYYPGRYDYWGQGTQVTVSS | low polyreactivity
QVQLVESGGGLVQAGGSLRLSCAASGSIIYPYAMGWYRQAPGKERELVASINWRTGSTYYADSVKGRFTISRDNAKNTVYLQMNSLKPEDTAVYYCAARLDYYTGFDYWGQGTQVTVSS | low polyreactivity
QVQLVESGGGLVQAGGSLRLSCAASGSIIYRNVMGWYRQAPGKERELVAAISSNGGRTYYADSVKGRFTISRDNAKNTVYLQMNSLKPEDTAVYYCAADTYPGTYYWGQGTQVTVSS | high polyreactivity
QVQLVESGGGLVQAGGSLRLSCAASGSIIYRYAMGWYRQARGKERELVAAISTTGGRTYYADSVKGRFTISRDNAKNTVYLQMNSLKPEDTAVYYCNTYGSGTHSTGYDYWGQGTQVTVSS | low polyreactivity
QVQLVESGGGLVQAGGSLRLSCAASGSIIYTNAMGWYRQAPGKERELVAAITGTTTTNYADSVKGRFTISRDNAKNTVYLQKTSLKPEDTAVYYCNADYDRSRVYYSVELYDYWGQGTQVTVSS | low polyreactivity
QVQLVESGGGLVQAGGSLRLSCAASGSILAGNTMVSYRQAPGKERELVATISKRGGSTYYADSVKGRFTISRDNAKNTVYLQMNSLKPEDTAVYYCAAALRAKHYYWGQGTQVTVSS | high polyreactivity
QVQLVESGGGLVQAGGSLRLSCAASGSILAGYAMGWYRQAPGKERELVAAISDSGGNTYYADSVKGRFTISRDTAKNTVYLQMNSLKPEDTAVYYCAADLGYGPLRELEYWGQGTQVNVSS | low polyreactivity
QVQLVESGGGLVQAGGSLRLSCAASGSILAHYAMGWYRQAPGKERELVAGISSGGSTNYADSVKGRFTISRDNAKNTVYLQMNSLKPEDTAVYYCNADQDFLFIGYLFDYWGQGTQVTVSS | low polyreactivity
QVQLVESGGGLVQAGGSLRLSCAASGSILARNAMGWYRQAPGKERELVAAISNSGSTNYADSVKGRFTISRDNAKNTVYLQMNSLKPEDPAGYYCAKDADHGWFEYDYWGQGTQVTVSS | low polyreactivity
QVQLVESGGGLVQAGGSLRLSCAASGSILDHYAMGWYRQAPGKEREFVAAISIRGGSTYYADSVKGRFTISRDNAKNTVYLQMNSLKPEDTAVYYCNALSNYVYRRNDYWGQGTQVTVSS | low polyreactivity
